In patent publication US20180171001A1:

Experiments:
Assay in all cases: cell-based or functional assay
[1] = biological target: Env of HIV-1 strain PVO.4 (HIV-1)
[2] = biological target: Env of HIV-1 strain R1166.c1 (HIV-1)
[3] = biological target: Env of HIV-1 strain REJO4541.67 (HIV-1)
[4] = biological target: Env of HIV-1 strain H086.8 (HIV-1)
[5] = biological target: Env of HIV-1 strain 231965.c1 (HIV-1)
[6] = biological target: Env of HIV-1 strain 3365.v2.c20 (HIV-1)
[7] = biological target: Env of HIV-1 strain Du172.17 (HIV-1)
[8] = biological target: Env of HIV-1 strain 251-18 (HIV-1)
Env of MuLV = biological target: Env of MuLV
[9] = biological target: Env of HIV-1 strain X1254_c3 (HIV-1)
[10] = biological target: Env of HIV-1 strain YU2.DG (HIV-1)
[11] = biological target: Env of HIV-1 strain 3415.v1.c1 (HIV-1)
[12] = biological target: Env of HIV-1 strain 250-4 (HIV-1)
[13] = biological target: Env of HIV-1 strain 3016.v5.c45 (HIV-1)
[14] = biological target: Env of HIV-1 strain ZM109F.PB4 (HIV-1)
[15] = biological target: Env of HIV-1 strain ZM53M.PB12 (HIV-1)

| Binder | neutralization IC50 [1] | neutralization IC50 [2] | neutralization IC50 [3] | neutralization IC50 [4] | neutralization IC50 [5] | neutralization IC50 [6] | neutralization IC50 [7] | neutralization IC50 [8] | neutralization IC50 (Env of MuLV) | neutralization IC50 [9] | neutralization IC50 [10] | neutralization IC50 [11] | neutralization IC50 [12] | neutralization IC50 [13] | neutralization IC50 [14] | neutralization IC50 [15] |
| --- | --- | --- | --- | --- | --- | --- | --- | --- | --- | --- | --- | --- | --- | --- | --- | --- |
| γ59κ3 (antibody, V domains shown) VH: QIHLVQSGTEVKKPGSSVTVSCKAYGVNTFGLYAVNWVRQAPGQGLEYIGQIWRWKSSASHHFRGRVLISAVDLTGSSPPISSLEIKNVTSDDTAVYFCTTTSTYDEWSDLHHDGVMAFSSWGQGTLISVSA VL: DIQMTQSPSTLSASIGDTVRISCRASQSITGNWLAWYHQRPGKAPRLLIYRGSRLLGGVPSRFSGSAAGTDFTLTIANLQAEDFGTFYCQQYDTYPGTFGQGTKVEVKR | > 15 µg/mL | 24.2 µg/mL | 8.54 µg/mL | > 15 µg/mL | > 15 µg/mL | > 15 µg/mL | > 15 µg/mL | > 15 µg/mL | > 30 µg/mL | 3.39 µg/mL | 8.97 µg/mL | > 15 µg/mL | > 15 µg/mL | > 15 µg/mL | > 15 µg/mL | > 15 µg/mL |
| γ22κ5 (antibody, V domains shown) VH: QIHLVQSGTEVKKPGSSVTVSCKAYGVNTFGLYAVNWVRQAPGQSLEYIGQIWRWKSSASHHFRGRVLISAVDLTGPSPPISSLEIKNLTSDDTAVYFCTTTSTYDKWSGLHHDGVMAFSSWGQGTLISVSA VL: DIQMTQSPSTLSASTGDTVRISCRASQSITGNWVAWYQQRPGKAPRLLIYRGAALLGGVPSRFRGSAAGTDFTLTIGNLQAEDFGTFYCQQYDTYPGTFGQGTKVEVKR | 0.352 µg/mL | 2.4 µg/mL | 0.795 µg/mL | > 15 µg/mL | 0.69 µg/mL | > 15 µg/mL | > 15 µg/mL | 1.7 µg/mL | > 30 µg/mL | 1.52 µg/mL | 0.569 µg/mL | > 15 µg/mL | > 15 µg/mL | 0.103 µg/mL | > 15 µg/mL | > 15 µg/mL |
| 8ANC3430 (antibody, V domains shown) VH: QIHLVQSGTEVKKPGSSVTVSCKAYGVNTFGLYAVNWVRQAPGQSLEYIGQIWRWKSSASHHFRGRVIISAVDLTGSSPPISSLEIKNLTSDDTAVYFCTTTSTSDYWSGLHHDGVMAFSSWGQGTLISVSA VL: DIQMTQSPSTLSASVGDTVRISCRASQSITGGWLAWYHQRPGKAPRLLIYRGSRLLGGVPSRFSGSAAGTDFTLTIANLQAEDFGTFYCQQYDTYPGTFGQGTKVEVKR | 0.206 µg/mL | 3.64 µg/mL | 0.198 µg/mL | > 23 µg/mL | 1.19 µg/mL | > 23 µg/mL | > 23 µg/mL | 6.17 µg/mL | > 23 µg/mL | 4.28 µg/mL | 0.545 µg/mL | > 23 µg/mL | > 23 µg/mL | 0.271 µg/mL | > 23 µg/mL | > 23 µg/mL |
| 8ANC3484 (antibody, V domains shown) VH: QIHLVQSGTEVKKPGSSVTVSCKAYGVNTFGLYAVNWVRQAPGQSLEYIGQIWRWKSSASHHFRGRVLISAVDLTGSSPPISSLEIKNLTSDDTAVYFCTTTSTYDRWSGLHHDGVMAFSSWGQGTLISVSA VL: DIQMTQSPSTLSASIGDTVRISCRASQSITGNWVAWYQQRPGKAPRLLIYRGAALLGGVPSRFRGSAAGTDFTLTIGNLQAEDFGTFYCQQYDTYPGTFGQGTKVEVKR | 0.077 µg/mL | 1.03 µg/mL | 0.117 µg/mL | 0.394 µg/mL | 0.294 µg/mL | > 30 µg/mL | 4.01 µg/mL | 0.391 µg/mL | > 30 µg/mL | 2.19 µg/mL | 0.461 µg/mL | 0.589 µg/mL | > 30 µg/mL | 0.131 µg/mL | > 30 µg/mL | 11.6 µg/mL |
| γ3κ5 (antibody, V domains shown) VH: QIHLVQSGTEVKKPGSSVTVSCKAYGVNTFGLYAVSWVRQAPGQRLEYIGQIRRWKSSASHHFRGRVTVSAVDPTGSSPPISSLEIRDLTTDDTAVYFCTTTSTSDYWSGLHNERGTAFSSWGQGTLISVSA VL: DIQMTQSPSTLSASTGDTVRISCRASQSITGNWVAWYQQRPGKAPRLLIYRGAALLGGVPSRFRGSAAGTDFTLTIGNLQAEDFGTFYCQQYDTYPGTFGQGTKVEVKR | 0.081 µg/mL | 2.07 µg/mL | 0.097 µg/mL | 0.434 µg/mL | 0.697 µg/mL | > 15 µg/mL | 3.73 µg/mL | 0.721 µg/mL | > 15 µg/mL | 1.72 µg/mL | 0.2 µg/mL | > 15 µg/mL | > 15 µg/mL | 0.314 µg/mL | > 15 µg/mL | > 15 µg/mL |
| γ3κ3 (antibody, V domains shown) VH: QIHLVQSGTEVKKPGSSVTVSCKAYGVNTFGLYAVSWVRQAPGQRLEYIGQIRRWKSSASHHFRGRVTVSAVDPTGSSPPISSLEIRDLTTDDTAVYFCTTTSTSDYWSGLHNERGTAFSSWGQGTLISVSA VL: DIQMTQSPSTLSASIGDTVRISCRASQSITGNWLAWYHQRPGKAPRLLIYRGSRLLGGVPSRFSGSAAGTDFTLTIANLQAEDFGTFYCQQYDTYPGTFGQGTKVEVKR | 0.17 µg/mL | 2.2 µg/mL | 0.26 µg/mL | 3.31 µg/mL | 0.727 µg/mL | > 15 µg/mL | > 15 µg/mL | > 15 µg/mL | > 30 µg/mL | 1.82 µg/mL | 0.42 µg/mL | > 15 µg/mL | > 15 µg/mL | 0.347 µg/mL | > 15 µg/mL | > 15 µg/mL |
| 8ANC3630 (antibody, V domains shown) VH: QIHLVQSGTEVKKPGSSVTVSCKAYGVNTFGLYAVNWVRQAPGQSLEYIGQIWRWKSSASHHFRGRVLISAVDLTGSSPPISSLEIKNLTSDDTAVYFCTTTSTYDRWSGLHHDGVMAFSSWGQGTLISVSA VL: DIQMTQSPSTLSASIGDTVRISCRASQSITGGWLAWYHQRPGKAPRLLIYRGSRLLGGVPSRFSGSAAGTDFTLTIANLQAEDFGTFYCQQYDTYPGTFGQGTKVEVKR | 0.102 µg/mL | 1.45 µg/mL | 2.65 µg/mL | 0.3 µg/mL | 0.375 µg/mL | > 30 µg/mL | > 30 µg/mL | 0.73 µg/mL | > 30 µg/mL | 2.38 µg/mL | 0.468 µg/mL | 28 µg/mL | > 30 µg/mL | 0.136 µg/mL | > 30 µg/mL | > 30 µg/mL |
| 8ANC3044 (antibody, V domains shown) VH: QIHLVQSGTEVRKPGSSVTVSCKAYGVNTFGLYAVNWVRQAPGQSLEYIGQIWRWKSSASHHFRGRVLISAVDLTGSSPPISSLEIKNLTSDDTAVYFCTTTSTYDKWSGLHHDGVMAFSSWGQGTLISVSA VL: DIQMTQSPSTLSASIGDTVRISCRASQSITGNWVAWYQQRPGKAPRLLIYRGAALLGGVPSRFSGSAAGTDFTLTIGNLQTEDFGTFYCQQYDTYPGTFGQGTKVEVKR | 0.26 µg/mL | 2.38 µg/mL | 0.278 µg/mL | 3.83 µg/mL | 1.33 µg/mL | > 30 µg/mL | > 30 µg/mL | 0.858 µg/mL | > 30 µg/mL | 4.54 µg/mL | 0.747 µg/mL | 7.56 µg/mL | > 30 µg/mL | 0.242 µg/mL | > 30 µg/mL | 15.2 µg/mL |
| γ23κ5 (antibody, V domains shown) VH: QIHLVQSGTEVKKPGSSVTVSCKAYGVNTFGLYAVNWVRQAPGQSLEYIGQIWRWKSSASHHFRGRVIISAVDLTGSSPPISSLEIKNLTSDDTAVYFCTTTSTSDYWSGLHHDGVMAFSSWGQGTLISVSA VL: DIQMTQSPSTLSASTGDTVRISCRASQSITGNWVAWYQQRPGKAPRLLIYRGAALLGGVPSRFRGSAAGTDFTLTIGNLQAEDFGTFYCQQYDTYPGTFGQGTKVEVKR | 0.043 µg/mL | 1.07 µg/mL | 0.091 µg/mL | 0.474 µg/mL | 0.291 µg/mL | > 15 µg/mL | 1.81 µg/mL | 0.176 µg/mL | > 30 µg/mL | 0.919 µg/mL | 0.136 µg/mL | 1.48 µg/mL | > 15 µg/mL | 0.091 µg/mL | > 15 µg/mL | 5.88 µg/mL |
